From patent US20230365662A1 come the findings set out here.

B1: parental mouse (KB001) Fab FASEBA (Fab, V domains shown)
VH: EVQLKQSGPGLVAPSQSLSITCTVSGFSLSIYSVHWVRQPPGKGLEWLGMIWGGGSSDYNSALKSRLSISKDNSKSQVFLKMNSLQTDDTAMYYCARNGNFYAMDYWGQGTSVTVSS
VL: QIVLTQSPAIMSASLGERVTMTCTASSSVSSSFLHWYQQKPGSSPQLWIYSTSNLASGVPARFSGSGSGTSYSLTISSMEAEDAATYYCHQYHHSPYIYTFGGGTKLEIK
B2: parental mouse (KB001) Fab FASEBA, VL variant Y97H (Fab, V domains shown)
VH: EVQLKQSGPGLVAPSQSLSITCTVSGFSLSIYSVHWVRQPPGKGLEWLGMIWGGGSSDYNSALKSRLSISKDNSKSQVFLKMNSLQTDDTAMYYCARNGNFYAMDYWGQGTSVTVSS
VL: QIVLTQSPAIMSASLGERVTMTCTASSSVSSSFLHWYQQKPGSSPQLWIYSTSNLASGVPARFSGSGSGTSYSLTISSMEAEDAATYYCHQYHHSPHIYTFGGGTKLEIK
B3: parental mouse (KB001) Fab FASEBA, VL variant S95Y (Fab, V domains shown)
VH: EVQLKQSGPGLVAPSQSLSITCTVSGFSLSIYSVHWVRQPPGKGLEWLGMIWGGGSSDYNSALKSRLSISKDNSKSQVFLKMNSLQTDDTAMYYCARNGNFYAMDYWGQGTSVTVSS
VL: QIVLTQSPAIMSASLGERVTMTCTASSSVSSSFLHWYQQKPGSSPQLWIYSTSNLASGVPARFSGSGSGTSYSLTISSMEAEDAATYYCHQYHHYPYIYTFGGGTKLEIK
B4: parental mouse (KB001) Fab FASEBA, VL variant S95H (Fab, V domains shown)
VH: EVQLKQSGPGLVAPSQSLSITCTVSGFSLSIYSVHWVRQPPGKGLEWLGMIWGGGSSDYNSALKSRLSISKDNSKSQVFLKMNSLQTDDTAMYYCARNGNFYAMDYWGQGTSVTVSS
VL: QIVLTQSPAIMSASLGERVTMTCTASSSVSSSFLHWYQQKPGSSPQLWIYSTSNLASGVPARFSGSGSGTSYSLTISSMEAEDAATYYCHQYHHHPYIYTFGGGTKLEIK
B5: parental mouse (KB001) Fab FASEBA, VL variant Y97Q (Fab, V domains shown)
VH: EVQLKQSGPGLVAPSQSLSITCTVSGFSLSIYSVHWVRQPPGKGLEWLGMIWGGGSSDYNSALKSRLSISKDNSKSQVFLKMNSLQTDDTAMYYCARNGNFYAMDYWGQGTSVTVSS
VL: QIVLTQSPAIMSASLGERVTMTCTASSSVSSSFLHWYQQKPGSSPQLWIYSTSNLASGVPARFSGSGSGTSYSLTISSMEAEDAATYYCHQYHHSPQIYTFGGGTKLEIK
B6: parental mouse (KB001) Fab FASEBA, VL variant S95I (Fab, V domains shown)
VH: EVQLKQSGPGLVAPSQSLSITCTVSGFSLSIYSVHWVRQPPGKGLEWLGMIWGGGSSDYNSALKSRLSISKDNSKSQVFLKMNSLQTDDTAMYYCARNGNFYAMDYWGQGTSVTVSS
VL: QIVLTQSPAIMSASLGERVTMTCTASSSVSSSFLHWYQQKPGSSPQLWIYSTSNLASGVPARFSGSGSGTSYSLTISSMEAEDAATYYCHQYHHIPYIYTFGGGTKLEIK
B7: parental mouse (KB001) Fab FASEBA, VL variant S95C (Fab, V domains shown)
VH: EVQLKQSGPGLVAPSQSLSITCTVSGFSLSIYSVHWVRQPPGKGLEWLGMIWGGGSSDYNSALKSRLSISKDNSKSQVFLKMNSLQTDDTAMYYCARNGNFYAMDYWGQGTSVTVSS
VL: QIVLTQSPAIMSASLGERVTMTCTASSSVSSSFLHWYQQKPGSSPQLWIYSTSNLASGVPARFSGSGSGTSYSLTISSMEAEDAATYYCHQYHHCPYIYTFGGGTKLEIK

“And” between values parts separate entries of the source, which are not always exact repeats. Equal entries are not always repeated.

The assay addresses HRgpA-6H (Porphyromonas gingivalis) (UniProt P28784). As to the kind of experiment: ELISA, Fab FASEBA supernatant on coated HRgpA-6H.
UniProt P28784, sequence (P28784 228-991 limits assumed): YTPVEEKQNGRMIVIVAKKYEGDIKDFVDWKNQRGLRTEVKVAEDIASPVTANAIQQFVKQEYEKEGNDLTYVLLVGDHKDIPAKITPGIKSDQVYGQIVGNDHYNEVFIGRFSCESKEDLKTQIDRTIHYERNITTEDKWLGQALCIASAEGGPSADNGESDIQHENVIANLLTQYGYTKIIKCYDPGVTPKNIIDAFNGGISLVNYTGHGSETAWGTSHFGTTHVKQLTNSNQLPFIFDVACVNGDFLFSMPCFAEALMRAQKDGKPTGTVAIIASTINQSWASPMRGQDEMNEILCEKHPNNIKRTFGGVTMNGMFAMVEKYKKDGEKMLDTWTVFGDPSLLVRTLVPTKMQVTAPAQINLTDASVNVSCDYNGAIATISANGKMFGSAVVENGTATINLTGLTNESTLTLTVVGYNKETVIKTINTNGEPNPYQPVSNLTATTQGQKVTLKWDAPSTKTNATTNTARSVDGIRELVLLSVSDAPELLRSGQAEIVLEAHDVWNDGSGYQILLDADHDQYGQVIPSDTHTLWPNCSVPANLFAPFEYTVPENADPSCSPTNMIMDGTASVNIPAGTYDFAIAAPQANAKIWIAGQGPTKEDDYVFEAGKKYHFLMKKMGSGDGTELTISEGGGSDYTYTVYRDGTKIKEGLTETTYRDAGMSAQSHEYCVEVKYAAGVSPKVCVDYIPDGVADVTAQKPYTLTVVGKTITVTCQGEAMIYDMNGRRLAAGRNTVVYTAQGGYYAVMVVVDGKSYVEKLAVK
As for B1, the OD450nm is 0.9 OD450nm and 0.889 OD450nm; the Ratio OD(Variant)/OD(WT) was 0.98 ratio to WT and 0.968 ratio to WT.
With B2, the OD450nm was 0.775 OD450nm and the Ratio OD(Variant)/OD(WT) is 0.982 ratio to WT.
In the same order, the values of B3 are 0.827 OD450nm and 0.9 ratio to WT.
In the same order, the values of B4 are 0.8 OD450nm and 0.871 ratio to WT.
On to B5, for which the OD450nm was 0.687 OD450nm and the Ratio OD(Variant)/OD(WT) is 0.871 ratio to WT.
Take B6: the OD450nm is 0.846 OD450nm and 0.817 OD450nm and 0.791 OD450nm; the Ratio OD(Variant)/OD(WT) was 0.921 ratio to WT and 0.889 ratio to WT and 0.861 ratio to WT.
For the molecule B7, the OD450nm stood at 0.849 OD450nm and the Ratio OD(Variant)/OD(WT) is 0.924 ratio to WT.
